Assay results reported in patent US9644034B2, “Anti-RSPO2 antibodies and uses thereof” (OncoMed Pharmaceuticals, Inc., priority 2011, dated 2017).
Values belong to the molecule of their own block, whether it stands above or below them.

What was measured:
human RSPO2 = target: T1, human RSPO2 (Homo sapiens, UniProt Q6UXX9); experiment: FACS binding of 130M23 and humanized 130M23 to HEK293 cells expressing FLAG-RSPO2furin-CD4TM-GFP; settings: five-fold serial dilutions
T1 construct: followed by the furin-like domains of RSPO2 (aa 31-146); expressed in transfected cells; host or cells: HEK-293
T1 sequence (Q6UXX9 31-146): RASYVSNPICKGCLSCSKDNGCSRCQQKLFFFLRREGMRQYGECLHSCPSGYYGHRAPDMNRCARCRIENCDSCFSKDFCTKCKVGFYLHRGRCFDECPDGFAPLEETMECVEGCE
Experimental: HEK293 cells were transiently transfected with an expression vector encoding FLAG-RSPO2furin-CD4TM-GFP. As described in Example 11, FLAG-RSPO2furin-CD4TM-GFP is a chimeric fusion protein enabling cell surface expression of the N-terminal furin-like domains of human RSPO2. FLAG-RSPO2furin-CD4TM-GFP transfected cells were incubated in the presence of anti-RSPO2 antibody 130M23 or humanized anti-RSPO2 antibody […]. Five-fold serial dilutions of each antibody were examined for their ability to bind to the RSPO2 expressing cells. The cells were stained with Phycoerythrin conjugated anti-IgG to reveal bound antibody. The cells were analyzed on a FACSCalibur instrument (BD Biosciences, San Jose, Calif.) and the data was processed using FlowJo software.

[1] = test system: RSPO1-induced β-catenin signaling; experiment: TOPflash luciferase assay in HEK-293 cells, Wnt3a plus human RSPO1; type: cell-based; settings: Wnt3a 5 ng/ml, RSPO1 10 ng/ml; antibodies 10 to 0.625 μg/ml
Experimental: HEK-293 cells were transfected with a 6×TCF-luciferase reporter vector (TOPflash, Millipore, Billerica, Mass.). After 24-48 hrs, the transfected HEK-293 cells were incubated with a combination of Wnt3a (5 ng/ml) and human RSPO1 (10 ng/ml, R&D BioSystems) in the presence of anti-RSPO1 antibodies 89M2, 89M4, 89M5, 89M7, 89M19, and 89M25, or 2 irrelevant control antibodies 254M14 and 254M26 (2-fold dilutions at 10 μg/ml to 0.625 μg/ml). The cells were incubated for 16 hours and luciferase activity was measured using Steady-Glo® Luciferase Assay System according to the manufacturer's instructions (Promega, Madison, Wis.).

human RSPO1 [2] = target: T2, human RSPO1 (Homo sapiens, UniProt Q2MKA7); experiment: FACS screening of hybridoma supernatants on HEK-293 cells expressing FLAG-RSPO1furin-CD4TM-GFP; type: binding
T2 construct: followed by the two furin-like domains of RSPO1 (aa 34-135); expressed in transfected cells; host or cells: HEK-293
T2 sequence (Q2MKA7 34-135): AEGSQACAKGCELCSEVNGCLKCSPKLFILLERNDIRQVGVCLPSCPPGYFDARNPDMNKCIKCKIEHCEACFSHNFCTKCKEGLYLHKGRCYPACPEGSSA
From the text: Antibodies were generated against recombinant human RSPO1 protein amino acids 31-263 (R&D Systems, Minneapolis, Minn.). Mice (n=3) were immunized with RSPO1 protein using standard techniques. Sera from individual mice were screened against RSPO1 approximately 70 days after initial immunization using FACS analysis. The animal with the highest antibody titer was selected for final antigen boost after which spleen cells were isolated for hybridoma production. SP2/0 cells were used as fusion partners for the mouse spleen cells. Hybridoma cells were plated at 1 cell per well in 96 well plates, and the supernatants were screened against human RSPO1 by FACS analysis.
For FACS screening of anti-RSPO1 antibodies a chimeric fusion protein enabling cell surface expression of the N-terminal furin-like domains of human RSPO1 was constructed.
HEK-293 cells were transfected with FLAG-RSPOlfurin-CD4TM-GFP. After 48 hours, transfected cells were suspended in ice cold PBS containing 2% FBS and heparin and incubated on ice in the presence of 50 μl of hybridoma supernatants for 30 minutes. A second incubation with 100 μl PE-conjugated […] secondary antibody was performed to detect cells bound by antibody. Cells were incubated with an anti-FLAG antibody (Sigma-Aldrich, St. Louis, Mo.) as a positive control and an anti-PE antibody as a negative control. The cells were analyzed on a FACSCalibur instrument (BD Biosciences, San Jose, Calif.) and the data was processed using FlowJo software.

OV19 ovarian tumor cells = experiment: OV19 ovarian tumor xenograft growth in NOD/SCID mice; type: in vivo; settings: day 35, vs control antibody; antibodies 15 mg/kg once a week, intraperitoneal
Experimental: Dissociated OV19 ovarian tumor cells (1×10^5cells) were injected in the mammary fat pads of 6-8 week old NOD/SCID mice. Tumors were allowed to grow for 45 days until they reached an average volume of 134 mm^3. The mice were randomized (n=10 per group) and treated with anti-RSPO1 antibody 89M5, 89M25, taxol, a combination of 89M5 and taxol, a combination of 89M25 and taxol, or control antibody 1B7.11. Antibodies were dosed at 15 mg/kg once a week, and taxol was dosed at […] once a week. Administration of the antibodies and taxol was performed via injection into the intraperitoneal cavity. Tumor growth was monitored and tumor volumes were measured with electronic calipers at the indicated time points. Data are expressed as mean±S.E.M.

binding of RSPO1 to LGR5 = target: T3, binding of RSPO1 to LGR5 (Homo sapiens, UniProt Q2MKA7); experiment: FACS: blocking of soluble RSPO1-Fc binding to LGR5 on HEK-293 cells; settings: RSPO1-Fc 10 μg/ml, antibodies 10 μg/ml
T3 construct: full-length human RSPO1, RSPO2, RSPO3 and RSPO4 were ligated in-frame to a human Fc region; made in house; host or cells: RSPO1-Fc: insect cells (baculovirus); LGR5 construct: transiently transfected HEK-293
T3 sequence (Q2MKA7 21-263): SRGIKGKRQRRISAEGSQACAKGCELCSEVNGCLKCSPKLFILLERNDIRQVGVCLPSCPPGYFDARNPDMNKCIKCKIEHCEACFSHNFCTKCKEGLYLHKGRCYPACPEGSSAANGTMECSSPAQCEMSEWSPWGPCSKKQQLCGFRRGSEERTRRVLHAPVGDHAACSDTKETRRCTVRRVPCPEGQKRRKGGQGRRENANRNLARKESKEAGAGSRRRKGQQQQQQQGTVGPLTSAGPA
Experimental: HEK-293 cells were transiently transfected with the FLAG-LGR5-CD4TM-GFP construct (previously described in Example 2). After 48 hours, transfected cells were suspended in ice cold PBS containing 2% FBS and heparin and incubated on ice in the presence of RSPO1-Fc protein (10 μg/ml) and antibodies 89M2, 89M4, 89M5, 89M7, 89M19 or 89M25 (10 μg/ml). A second incubation with 100 μl PE-conjugated anti-human Fc secondary antibody was performed to detect cells bound by the RSPO1-Fc fusion protein. The cells were analyzed on a FACSCalibur instrument (BD Biosciences, San Jose, Calif.) and the data was processed using FlowJo software.

[3] = test system: PN31 pancreatic tumor cells; experiment: PN31 pancreatic tumor xenograft growth in NOD/SCID mice; type: in vivo; settings: antibodies 15 mg/kg once a week, intraperitoneal
Experimental: Dissociated PN31 pancreatic tumor cells (1×10^5cells) were injected subcutaneously into the flanks of 6-8 week old NOD/SCID mice. Tumors were allowed to grow for 61 days until they reached an average volume of 120 mm^3. The mice were randomized (n=10 per group) and treated with anti-RSPO1 antibody 89M5, anti-RSPO2 antibody 130M23, gemcitabine, a combination of 89M5 and gemcitabine, a combination of 130M23 and gemcitabine, or control antibody 1B7.11. Antibodies were dosed at 15 mg/kg once a week, and gemcitabine was dosed at […] once a week. Administration of the antibodies and gemcitabine was performed via injection into the intraperitoneal cavity. Tumor growth was monitored and tumor volumes were measured with electronic calipers at specific time points. Data are expressed as mean±S.E.M.

human RSPO1 [4] = target: T2, human RSPO1; experiment: FACS binding of 89M5 and humanized 89M5 to HEK293 cells expressing FLAG-RSPO1furin-CD4TM-GFP; settings: five-fold serial dilutions
Experimental: HEK293 cells were transiently transfected with an expression vector encoding FLAG-RSPO1furin-CD4TM-GFP. As described in Example 5, FLAG-RSPO1furin-CD4TM-GFP is a chimeric fusion protein enabling cell surface expression of the N-terminal furin-like domains of human RSPO1. FLAG-RSPO1 furin-CD4TM-GFP transfected cells were incubated in the presence of anti-RSPO1 antibody 89M5 or humanized anti-RSPO1 antibody h89M5-H2L2. Five-fold serial dilutions of each antibody were examined for their ability to bind to the RSPO1 expressing cells. The cells were stained with Phycoerythrin conjugated anti-IgG to reveal bound antibody. The cells were analyzed on a FACSCalibur instrument (BD Biosciences, San Jose, Calif.) and the data was processed using FlowJo software.

- binding to human RSPO2 (FACS) (human RSPO2): bind
B1: h130M23-H1L2: humanized anti-RSPO2 antibody; heavy chain SEQ ID NO:70, light chain SEQ ID NO:71 (antibody)
heavy: EVQLVESGGGLVKPGGSLRLSCAASGFTFSSYAMSWVRQAPGKGLEWVSSISSGGSTYYPDSVKGRFTISRDNAKNSLYLQMNSLRAEDTAVYYCARGGDPGVYNGDYEDAMDYWGQGTTVTVSSASTKGPSVFPLAPCSRSTSESTAALGCLVKDYFPEPVTVSWNSGALTSGVHTFPAVLQSSGLYSLSSVVTVPSSNFGTQTYTCNVDHKPSNTKVDKTVERKCCVECPPCPAPPVAGPSVFLFPPKPKDTLMISRTPEVTCVVVDVSHEDPEVQFNWYVDGVEVHNAKTKPREEQFNSTFRVVSVLTVVHQDWLNGKEYKCKVSNKGLPAPIEKTISKTKGQPREPQVYTLPPSREEMTKNQVSLTCLVKGFYPSDIAVEWESNGQPENNYKTTPPMLDSDGSFFLYSKLTVDKSRWQQGNVFSCSVMHEALHNHYTQKSLSLSPGK
light: DIQMTQSPSSLSASVGDRVTITCKASQDVSSAVAWYQQKPGKAPKLLIYWASTRHTGVPSRFSGSGSGTDFTLTISSVQAEDFATYYCQQHYSTPWTFGQGTKVEIKRTVAAPSVFIFPPSDEQLKSGTASVVCLLNNFYPREAKVQWKVDNALQSGNSQESVTEQDSKDSTYSLSNTLTLSKADYEKHKVYACEVTHQGLSSPVTKSFNRGEC
modifications: h130M23-H1L2 Heavy chain amino acid sequence; h130M23-H1L2 Light chain amino acid sequence

- binding to RSPO1 (FACS) (human RSPO1 [2]): bound
- blocking of binding of RSPO1 to LGR5 (binding of RSPO1 to LGR5): blocked
- binding to human RSPO1 (FACS) (human RSPO1 [4]): bind
B2: 89M5: anti-RSPO1 monoclonal antibody, hybridoma ATCC PTA-11970; variable regions SEQ ID NO:10 and SEQ ID NO:11 (antibody, V domains shown)
VH: EVQLQQSGPELVKPGASVKISCKTSGYTFTGYTMHWVRQSHGKTLEWIGGINPNNGGTTYNQNFKGKATLTVEKSSTTAYLELRSLTSEDSALYYCARKEFSDGYYFFAYWGQGTLVTVSA
VL: DIVMTQSHKFMSTSVGDRVNITCKASQDVIFAVAWYQQKPGQSPKLLIYWASTRHTGVPDRFTGSVSGTDYTLTISSVQAEDLALYYCQQHYSTPWTFGGGTKLEIK
modifications: 89M5 Heavy chain variable region; 89M5 Light chain variable region
- blocking of RSPO1-induced β-catenin signaling [1]: blocked
- reduction in tumor growth (OV19 ovarian tumor cells): 40%
- effect on tumor growth as single agents [3]: only a minimal effect
